A short description of this data set: soluble on expression in E. coli; label from the status in PepcDB or PDB records.
Take “MGSDKIHHHHHHMNYLVYQSYGSKDILNECCYSILSLLKHGINKNETRIVIYTDQPEYFSFLPAATLEFVQMSADIIADYKGVHAFVHRLKIKILQDAVTRFQGTILYVDSDIYFLKSIEPLFASISKTNLLMCNNEGRIHTGGNRIFEKFSAFIKKNTDYLKQHHIPIPYDITMWNAGVIGFLSTEKELLEKVLYTNDTIYNKFQSHVVEQLSFSYQLQKQGTLNAATDYLYHYWNFKEFRIVLAEFFKYHLNRGSVEQMIQDIDSIRPDVLIKPKLEYETLPFLKKNIRKLGGKKNRWKFPAYTIGQAATI”: the “soluble on expression in E. coli” value was “not soluble”.
The same measure for “QHTEERELKKRLMNTARTVSEMTEVKEALARKKQTEAVRHAVEEIRMINEADYIVVMDMNHIRYTHPVSTSIGKKSEGADEEAAFAEHIYFSEAKGEIGTAVRAFYPVKDQDLNQIGVVLVGKTLPGIADILLHLKRD”: “not soluble”; for “MSLSRHSNTPATDASVLLVQLSDSHLFAEDGARLLGMDTAHSLEKVVERVAREQPRIDLILATGDVSQDGSLDSYTRFRRLSAPLDAPLRWFAGNHDEREPMQRATEGSDLLEQVVDVGNWRVVLLDSSIPGAVPGYLEEDQLELLRRAIDSAGERFLLVSFHHHPVPIGSDWMDPIGLRNPQALFDLLAPYPQVRCLLWGHIHQEFDRQRGPLRLLASPSTCVQFAPGSSDFTLDRLAPGYRWLRLHDDGRLETGISRVDDVVFEVDYDTAGYEGGSHHHHHH”: “soluble”.
Then “MAHHHHHHMAATKLGINGFGRIGRLVFRAAFGRKDIEVVAINDPFMDLNHLCYLLKYDSVHGQFPCEVTHADGFLLIGEKKVSVFAEKDPSQIPWGKCQVDVVCESTGVFLTKELASSHLKGGAKKVIMSAPPKDDTPIYVMGINHHQYDTKQLIVSNASCTTNCLAPLAKVINDRFGIVEGLMTTVHASTANQLVVDGPSKGGKDWRAGRCALSNIIPASTGAAKAVGKVLPELNGKLTGVAFRVPIGTVSVVDLVCRLQKPAKYEEVALEIKKAAEGPLKGILGYTEDEVVSQDFVHDNRSSIFDMKAGLALNDNFFKLVSWYDNEWGYSNRVLDLAVHITTS”, with “soluble”; and “MELFELFILDANGVPRGKLLHRDELLAVYRSGRPLPSTILGLTMNGEDVEDSGLVWDVGDIDCRAYPLSGSLVRLPWRQIPTAAVQVSMHPSEGLPASVADPRHLLVRTIDALKSEGYHPVMAAELEFYLLDRERDANGRPQPARDADGGRPRATQVYGLRELEQIEPFLADLYAACKAQGLPARTAISEYAPGQVEITLDHGDALAAMDQAIRYKRLVKGIAHKHGMLACFMAKPFDDLAGTGMHLHVSLADEQGHNLFASDDPAGTPLLRQAVGGMLASLLDSLLLFCPNANSYRRFQANSYAPLAQTWGVDNRTVSLRVPGGPASSRHIEHRICGADANPYLAAAALLAGVHRGIREGIDPGAPVEGNGYAQAGKRLPTDWLTALDTLQGSEWAREAFGEPFLGVYLAVKRAEYRQFMGEVGEQDWRWYL”, with “not soluble”; and “MFRRIPLGRFLTRKIHNQTNGLIVPTTNVQKQQKRQILFKMGNETPARVVGYYVVFPVIPEETVENNCFMYNIAKNEDWPKLATAEPRELYEGTVRMLMDYGATVMEHMEHLATLPAEERKFENVVEPLLTEEYEVNFAFQTLVLKMLTDWPDCNRKLFDADLHHIKIMCARDQMEKLTNKDFQDAIKQLYEAKDGLSEWQSRLLEWYLLEIKASGLDKHDDKTRKVLGSWSKFVDEYRSKYITGVMSTNDQQTFVVTDQKVIKDAPPHVLQKLAVDEQNWESGPWRGRMTPHTIYPFMQYCGDRQLRATAWEKWTSKAGFDHDFYNNSINIEELRHNNEGLAKTLGYSSVAEHRLANKMAASPETVRGFINALQRRIRPVVIDRMESWSAWAGRCELITGELQAYDMPYVCRKEAEHHYEFFFQLKSSNFSFFRVNPLDLMNHFPFWPTFQNIMGVIGHIFNLEFKDITDKGLEKAHADVRIYSVGDKFSGQHYGRLYIDPYDRQNKRGGWNVMLARPESKERGLDKIVYFIGSAIAPTSNGPSLLHHQQLQQLLFHFGRSVQLLLSQSPYRDISIPWSPFYASDWDAADMFPTFLQMFVTKPNLLATISSPHQITKQSLTEEHANSVALTISRASLWETYRTLFWSDFDLSIYEMEDRKQKFWLDMYKQMYEEYFPFKRAKNDYQPCSFTPIFALQPHMSMYYRKLWAEMLALDIHETFDEEDNEVQTGERLKTTILNRGSGDVAKELFKRFQGRNPSVGAICDHYAPPMAIQDEMEMSENQRR”, with “not soluble”.
The same measure for “MGSDKIHHHHHHMLIFQCHGDRCLSSNLQEHFTDLKKLVNGKSLLMGEKNVQKRLIRLGQILRVFLDKDRVSSIWLSRNFQITPRTIQRDLAALKESGFPIHEIQKGVYRLGKDLIKNLEVFDETELALVITLRNVVGQLGRPFQKAADGLFNSLYDAASSMPVYVRMDESIPLDSSLLNRIVKSIRLKKIAGFYYKSGKPHQVNMEPYRVVHFGGFWYLVGKDTGDSVIKRYALDRISDFKMARTPFRKIPENLDSAIQGSANIWFSTDQNLVVKISVDASSSGYFKRRKVFPTQEITEEREDGSLIVTFRVGRYEAIQDILKSWLPHITILEPAEFRDAFLADMKKWVQRQEQVGS”: “not soluble”.
For the sequence “MGSDKIHHHHHHMLIHQQYTRHGPDYRFGEQMTFLDVKQTFGFSHVRVGRWVTREESLIAANLVFDSLADLAFILHLPPLTLGLRQSLSLAFGHGGQKGVQAHYAPAARELALAKNAGAGALAHEFWHAFDHYVAPKAFQRVTGRFTCASDLWLADLPLIDHPLNQRLVEIFRVTLLSEDNLAPSDYVRRAIALDKRYGSQYFAKPTEMMARAFEACIESYQGIQNPYLVSGTRYSSLAKEGAYPDEPHRQRIFKALIAYFEPLGIALGKAG”, the “soluble on expression in E. coli” value is on record as “not soluble”.
Then “AAPGKPTIAWGNTKFAIVEVDQAATAYNNLVKVKNAADVSVSWNLWNGDTGTTAKILLNGKEAWSGPSTGSSGTANFKVNKGGRYQMQVALCNADGCTASDATEIVVADTDGSHLAPLKEPLLEKNKPYKQNSGKVVGSYFVEWGVYGRNFTVDKIPAQNLTHLLYGFIPICGGNGINDSLKEIEGSFQALQRSCQGREDFKVSIHDPFAALQKAQKGVTAWDDPYKGNFGQLMALKQAHPDLKILPSIGGWTLSDPFFFMGDKVKRDRFVGSVKEFLQTWKFFDGVDIDWEFPGGKGANPNLGSPQDGETYVLLMKELRAMLDQLSAETGRKYELTSAISAGKDKIDKVAYNVAQNSMDHIFLMSYDFYGAFDLKNLGHQTALNAPAWKPDTAYTTVNGVNALLTQGVKPGKIVVGTAMYGRGWTGVNGYQNNIPFTGTATGPVKGTWENGIVDYRQIASQFMSGEWQYTYDATAEAPYVFKPSTGDLITFDDARSVQAKGKYVLDKQLGGLFSWEIDADNGDILNSMNASLGNSAGVQLEHHHHHH”, with “soluble”; and “MGHHHHHHSHGDAAPEALEFEYDLAEPPEKVWRALTVPELLAAWMMPNDIRPEIGNRFAFAGTEAAIECEILDAEPERLLRYSWRQQPGDAARQDPLDSVVTFTLARTVSGGTHLRIVHDGFGGKAMPAVAMASG”, with “not soluble”.
Turning to “MSTLLDRVPCTIVTGFLGAGKTTLLRGLLEKLDGKRLAIIVNEFGDIGIDGEILKGCGIESCPEENIVELANGCICCTVADDFQPAIEQILSRQPKVEHILIETSGLALPKPLVQAFQWPAIKSRVTVDAVVAVVDGAALAEGQVAHDMEALAAQRANDEALDHDDPVEEVFEDQVACADLIVLTKADLLDDAGLEKAKAHILEHLPKAAKIVVASNGAIDPTVLIGLGLAVEEDIENRRTHHDGELDHEHDDFDSFVIDLPAVTDPEALAARIAQTAAAENVLRIKGFIEVATKPMRLQVQAVGSRVNHYYDRPWAAGEERRSRLVVIGEKGINREKIEQMLAA”, the “soluble on expression in E. coli” value is recorded as “not soluble”.
The same measure for “MTYDSEFGSHVSLYRDRIKQVIDDSLNEHLNSMILRVDLHDPIDTENMDNPFFQPRVDSGAISRFTSALKAKLKHDKHIKTQRKDWPDSRHSTLRYAWVREYTKNRKRHYHLILCFNQDAYYHLGDYDLNRNTLRTMITTAWYSALGIPIDSSGKLVNYPPNGKYLLNRKRDNFEQTYSDLMNRVDYMTKVRTKIVGDGDRNFGCSRG”: “soluble”; for “SKTENEEDVKPPESCHAMQLLFKSLEASERAKVEEELKKTKENEFTQRNEHHALRDITHGKVNNYSFGTRQARKLFPHYHPPTWLGNLYLPLRGMPHTGPGCYAAATDWNGLAYNLSKVPTSTKGYAIGARTAVRFKPISKDVTPYPGMYQKVDTLSEKHKKSFAPFNILMPRFRSAAKGDSYPGPGTYNPEMKSVPKVTWPMKFGSPDWSQVPCLEKRTLKAELSADKDFRKHRSRVAYFSLYYQ”: “soluble”; for “MIAPQPPMHLSGRCVCPSDPQFVEEKGIQAEDLVIGALENAFQECDDVIGRELEASGQVGGCTALVAVFLQGKLYVANAGDSRAILVRRHEIRQLSSEFTPETERQRIQQLAFTYPELLAGEFTRLEFPRRLKGDDLGQKVLFRDHHMRGWSYKRVEKSDLKYPLIHGQGRQARLLGTLAVSRGLGDHQLRVLDTDIQLKPFLLSIPQVTVLDVHQLAVQEEDVVVMATDGLWDVLSNEQVALLVRSFLTGNQKDDPHRFSELAKMLIHNTQGKDNGATGEGQVSYDDVSVFVIPLHSQAQEGSGH”: “soluble”.
Then “MNSFYSQEELKKIGFLSVGKNVLISKKASIYNPGVISVGNNVRIDDFCILSGKVTIGSYSHIAAYTALYGGEVGIEMYDFANISSRTIVYAAIDDFSGNALMGPTIPNQYKNVKTGKVILKKHVIIGAHSIIFPNVVIGEGVAVGAMSMVKESLDDWYIYVGVPVRKIKARKRKIVELENEFLKSMNSLEHHHHHH”, with “not soluble”; and “MSTTAYQPIAECGATTQSEAAAYQKRWLVANDAGQWLNRDLCPRLAEVSVELRMGYLVLKAPGMLRLDIPLDVIEDDDSVRYQMLVGEQTVDVVDEGELAAAWISNHAGVPCRILKVHPDMAEVRWPSLEHHHHHH”, with “soluble”.
On to “MGSDKIHHHHHHMKEDSSLTPQEVADLLKITKYTVYEMVKRGELPAYRIGRKIRIEQRDVDAYIKQGKKLKYKDIDTLEASPRTQAARQDYLSTSPGLVICGQDLLLDILGRHLENHSQGCRAFRHNIGSFAGLLQLYQGESDMAGVHLWDSDSESYNIPYVRRMVPGIPTLIIHLAMRQQGFYVARSNPLGIKGWADLTIPGLRFINREPGCGTRVLLDEHLYQMKLDRRKINGYEREETSHLAVASAVARGTADLALGNEKAALQVRGIEFIPLQKERYELVIRKEDLDKAEIRAVLDILNSAAFKSELEGLGDYCLEETGRIVAEI”, for which the “soluble on expression in E. coli” value is listed as “not soluble”.
Then “MDEVDVALIGAGIMSATLGAMLRTLEPGWTQVMFERLDAPAQESSSPWNNAGTGHSALCELNYTPEVKGRVQIDKALGVNEKFQISRQFWSYQVNEGVLPSPREWINPVPHVSFGRGEDQVAYLKKRYEALAAHPLFPNMQYTDDRAKFAEMLPLMADGRSEFEKVAISWTDAGTDINYGSQTRQFLKAAEKNGTEIRYGHEVKDIKRDGAKWRVTVKNVHTGDTQVIRANFVFVGAGGMALPLLQKTGLEHHHHHH”, with “soluble”; and “MGIFSRFADIVNSNVTSLLDKAENPEKMIRLIIQEMEDTLVEVRTASAKALADKKELTRKISSIEAQVADWQDKASLALLKQREDLARSALIEKQKVQDILSSLKTEFILVEESIEKLSAELIELETKLTETRARQQALVIRQQTAQHRNDIKSHTHSGKTERAMAKFEQYERRIDELDAKADSYSIGKANSLEQEFAELQAQDEIDKEIERLKEQMKKDALEHHHHHH”, with “not soluble”.

(Values after the DeepSol protein solubility set.)
